Where no end group is shown, it is not given here.
T1: Recombinant microbial transglutaminase (mTG) (Streptoverticillium mobaraense, UniProt P81453 77-407)
T1 sequence (looked up): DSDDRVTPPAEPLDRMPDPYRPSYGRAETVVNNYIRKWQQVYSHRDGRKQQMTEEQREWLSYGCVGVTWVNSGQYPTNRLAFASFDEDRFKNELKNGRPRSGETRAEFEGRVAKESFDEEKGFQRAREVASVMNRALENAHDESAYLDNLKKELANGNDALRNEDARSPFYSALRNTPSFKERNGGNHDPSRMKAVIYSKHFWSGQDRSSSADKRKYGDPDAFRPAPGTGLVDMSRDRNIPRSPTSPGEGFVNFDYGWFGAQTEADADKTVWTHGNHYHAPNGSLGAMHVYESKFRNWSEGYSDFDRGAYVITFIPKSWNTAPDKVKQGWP


Target: T1, Recombinant microbial transglutaminase …
Experiment: cell-based or functional assay

Binder | Kmapp [µM]
FWIQE (also: biotin tag, position not given here) [bFE5Q4] | 5
YEIQR (also: biotinylated, position not given here) [BEST1] | 0.086
WPAQR (also: biotinylated, position not given here) [BEST4] | 0.225
YEAQK (also: biotinylated, position not given here) [BEST2] | 0.114
DVYSQH (also: biotin tag, position not given here) [bDH6Q5] | 33.1
HDLMWPDVYSQH (also: biotin tag, position not given here) [bHH12Q11] | 3.08
YEAQR (also: biotinylated, position not given here) [BEST3] | 0.08

Other lines, results leading:

Kmapp [µM] | Binder
172 | LLTLPSVQEQN (also: biotin tag, position not given here) [bLN11Q8-10]
14.8 | PLVQSH (also: biotin tag, position not given here) [bPH6Q4]
11.4 | WPDVYSQH (also: biotin tag, position not given here) [bWH8Q7]
> 50 | SPLKHQEY (also: biotin tag, position not given here) [bSY8Q6]

Reference: patent publication US20160361434A1 (COVALAB, published 2016)
